{"source": "the DeepSol protein solubility set", "data": [{"test": "soluble on expression in E. coli; label from the status in PepcDB or PDB records", "values": [{"sequence": "MAHHHHHHEAVVTPWSVEGDVNYDKLIKDFGSHAIDEALLERIERVLGKKPHHFLRRGIFFSHRDLNLLLDVYESGQPFYLYTGRGPSSESMHMGHLIPFMFTKWLQDSFRVPLVIQMTDDEKFYFRNIPMEQVEAMTTENIKDIIAMGFDPELTFIFRDFDYMGCMYRTVAKIERAFTASQVRGCFGFAMEDNCGRWMFPAIQAAPSFSAAFPHIFPPSMGNVFCLIPQAIDQDPYFRLTRDIAPRLGYLKPAVIHSKFFPGLSGPKGKMSSSSGTAVLLTDTEKMVKDKINKHAFSGGGATKQEHFLLGANVEVDVPIQWLSFFLEDDEELARVKKEYMLGRIMTGEVKKLLINTITAITKTHQEKRKLVTDEDVQLFTSTRIMGPAKKAATQ", "soluble on expression in E. coli": "soluble"}, {"sequence": "MAHHHHHHGHHHQLENLYFQGEETAVPENSGANTELVSGESEHSTNEADKQNEGEHARENKLEKAEGVATASETASPASNEAATTETAEAASAAKPEEKASEVVAETPSAEAKPKSDKETEAKPEATNQGDESKPAAEANKTEKEVQPDVPKNTEKTLKPKEIKFNSWEELLKWEPGAREDDAINRGSVVLASRRTGHLVNEKASKEAKVQALSNTNSKAKDHASVGGEEFKAYAFDYWQYLDSMVFWEGLVPTPDVIDAGHRNGVPVYGTLFFNWSNSIADQERFAEALKQDADGSFPIARKLVDMAKYYGYDGYFINQETTGDLVKPLGEKMRQFMLYSKEYAAKVNHPIKYSWYDAMTYNYGRYHQDGLGEYNYQFMQPEGDKVPADNFFANFNWDKAKNDYTIATANWIGRNPYDVFAGLELQQGGSYKTKVKWNDILDENGKLRLSLGLFAPDTITSLGKTGEDYHKNEDIFFTGYQGDPTGQKPGDKDWYGIANLVADRTPAVGNTFTTSFNTGHGKKWFVDGKVSKDSEWNYRSVSGVLPTWRWWQTSTGEKLRAEYDFTDAYNGGNSLKFSGDVAGKTDQDVRLYSTKLEVTEKTKLRVAHKGGKGSKVYMAFSTTPDYKFDDADAWKELTLSDNWTNEEFDLSSLAGKTIYAVKLFFEHEGAVKDYQFNLGQLTISDNHQEPQSPTSFSVVKQSLKNAQEAEAVVQFKGNKDADFYEVYEKDGDSWKLLTGSSSTTIYLPKVSRSASAQGTTQELKVVAVGKNGVRSEAATTTFDWGMTVKDTSLPKPLAENIVPGATVIDSTFPKTEGGEGIEGMLNGTITSLSDKWSSAQLSGSVDIRLTKSRTVVRWVMDHAGAGGESVNDGLMNTKDFDLYYKDADGEWKLAKEVRGNKAHVTDITLDKPITAQDWRLNVVTSDNGTPWKAIRI", "soluble on expression in E. coli": "soluble"}, {"sequence": "MAHHHHHHMAAADQLRYAAQMIELARSEEREDGNPLTAARCYTTAMEVIASEASKRAAMIESNEARRFFLFQVRSKLEMYHERAELLLQVANGSGLLDKPSLSNGDASALQTNYPPALFASAVANEKSSSGNGGVASCSTGGGVSVLGIPLQPQQMAPSAPPTQTQSSYGDFKEPPMSCYLKPDDDATAEPPPVTPELNLDELMKNLGAPPEL", "soluble on expression in E. coli": "not soluble"}, {"sequence": "MAHHHHHHMAADEDAREHRTMCRLLQAATGKLSDMTVTTNIETHIATLRAANMSTSPKEWHALFNSKNNSNAYEKLSAEGKKEAGALGGAAAWGAWRTDKEEAEKKKIGTQEDKDFPAIADARQQFAAHNRLLELTAKAVEISKKWKAAKDFITNDETNNIQKLLREALYEDGAAADALTQSTSFGTGSNWASHCNGDDKRKSISGDFLCMRGGSGGAAKECSGAFTGAEIDNQGTITTKWADLKASCALNTENVITPHEIAAALGSLARQPHTTRSSK", "soluble on expression in E. coli": "not soluble"}, {"sequence": "MAHHHHHHMAARTDDPRLLSLFSAQREEDADIVIIGFPYDEGCVRNGGRAGAKKGPAAFRFFLQRLGSVNNLELNVDASHLKLYDAGDITASTLEEAHEKLESKVFTVLARGAFPFVIGGGNDQSAPNGRAMLRAFPGDVGVINVDSHLDVRPPLQDGRVHSGTPFRQLLEESSFSGKRFVEFACQGSQCGALHAQYVRDHQGHLMWLSEVRKKGAVAALEDAFGLTGKNTFFSFDVDSLKSSDMPGVSCPAAVGLSAQEAFDMCFLAGKTPTVMMMDMSELNPLVEEYRSPRVAVYMFYHFVLGFATRPKPKAEN", "soluble on expression in E. coli": "soluble"}, {"sequence": "MAHHHHHHMADTEAVAGTEAIPPTQNEQHDSAAKKKQANSYYYWHNHEKERAKVGDVAPMPKPVLLKKSDPSVLPASTASYPITKHSWCDGKKNVTVYIDTKLDEKETMVEDTLQVEFGKRRLTVSYIANVQTSKDVATQRRKQLVLCLAKAIKSKESSYKVKDPSGQIVIRLAKAEETSWWELAKKDGKLSDADDSDEENEGKADEGDGAAEEKA", "soluble on expression in E. coli": "soluble"}, {"sequence": "MAHHHHHHMAGEPYLVYLLRCLAHQSGLTQLSPHFAVPTTEIDSDDGGAVAVVTAGHSANHPSRLFWERCVVVGVRVEPTTKNLLQTGWETQPCSHCVSQDGAAADAHDSPSRRSRLCVLPLLYGGTQCGECGHALSLVPTWTRALYLVLQRRDRSRAAAVAYGEEVHRHLWLGVTIDALLYTSATEQQQQLLVVHAAAGPAAAAPSATLPCAETTKGAFHIICQDERVNRLGLKWGDGTAFSAAANLHDVARRVAPQLQGQAHVKRLLLLVVLYIVYYGSHPAAAGSHRHPLHVLLVGPAKTGKSALLREVAQLIGLEAEVLDSTVVRTGGSGGAAGGSSFSAALPIRRSAVLMAGSGMTASTLVLDQLPSTAGGAAAMAPLLEAMERGHGCGAASGEGDAAAGGPDVHELPSTIIAAAGEESAAAVQLAPYFSLLAAVAPTNSLDDTAIISQDVVAASRARSSHSRATSRSMSRATQLSASSPHHSQRGPSISQSTSHRADPSSLSERLTHEDVCYLVRRAAEPVLLNSVVSHAACYDAFIDKLVDCAGLLEETQPSVCHALPPPSACRGQHRVGLPSAACDSLRAAPLAIDEHLRILCALSRARALLEHAEVLRDAGWTAQMRDEVWALYHGHLVAFADLMQRRSCSSGAMASRDPAEVLRTTSWSSSFFDACGGSTAAPAPAGYPSLSRFSGDAAALGRAWKGRMRAMSSREGLGLWHPQKTPSKKRCRLMFVEALRQRQCLSAQVESAVPPPEVEHVFGLLGGSSAFGDPLDVVISQMQEEGLLLRRPGGWRSL", "soluble on expression in E. coli": "not soluble"}, {"sequence": "MAHHHHHHMAHAVGFACPHMADPSMVRNVIGVRGRALSVVVDSTNAAMAARKHYDCDDIYGMELQDQNGDGSTLESHWSQRHAKDELMAPIGGAGDHTELTLAAFAELGCMRVNWKLAEPMGWGKKSGCELLQSKRSAPNMSEYSHIFCNRDEVVERCASDRYSRGFCRRSIIEFSKQHSMDSCPIIDPAMDVRDLEAVFEKEEYLSARPGDKPSSWCLDTLPTNTTDARYPEETYLSAATQAELKCLGMQVHLKNPEKRNVRWLPCTEEETITWDTPPYNKENVICPKYAEVCTISATGGSVIPVVSWDGEARVWSRTVPPASTGQGLPGASVPVAESIDPGRGTHTKDVVTAIPERNLLLQGPWRLSVLLLLLE", "soluble on expression in E. coli": "soluble"}, {"sequence": "MAHHHHHHMAIACDSPVITLYKPRENGMIMPCHPEMSTVENIGQITDAHRLVPTAVRFSEDSQWVISAGEDETLAVSSVRKLKRVFVCTEFITRRHCMAFMNTFTSLCILASPPETSVLIIAACATDGTVVQWVVNPATSRSSYTKKLQLHLGALVAMDIMRDGTGS", "soluble on expression in E. coli": "not soluble"}, {"sequence": "MAHHHHHHMAKEYPILVVPCKRGGIPCLTPDQARAILNEEERVISVSIFDASEFVDPCKKANQGFAEFCGLGEFRTILTVRSPHIGMHASAPATDAGLCANHEKGRISLGMDKWKEMVLPLRPEIAIPPYDSVSINEPQKKRRRTAMTRSAKWATSADSLQGNGNCKLMKPLCAAENNGEFVFLEELCQNETLQQYTYHVKEAINKGQVMSTAISLPSLLICLKYNVCFIESAIPWILAEKGIGLVFDFNPVSGVSPARYETQIDLNDDCFTKDIRPLSPDCNCYTCKRHMRAYIHHLLTVQEMNSKTLLVIHNLTRLIQLVRLYRILDAEDREALLNWLFAQF", "soluble on expression in E. coli": "not soluble"}, {"sequence": "MAHHHHHHMAKTVDNAALLAEIDQLRRLIAEKEALITPDGGSLSKKSKKKSQMNMVETEPVQGCRDFPPETMRLRKYLFDVFHSTARKFGFEEYDSPVLESEELYIRKAGEEITEQMFNFITKGGHRVALRPEMTPSLARQLLAKGRSLLLPAKWYSIPQCWRYEAITRGRRREHYQWNMDIIGVKSVSSEVELVCAACTAMQSLGLSSKDVGVKINSRKILQTVVEQAGVSADKFAPVCVIVDKMEKLPREEVVAQLAAIGLESNVVDAITSTLSLKTIDEIAQRIGEEHEAVRELRDFITQIEAYGFGDWVIFDASVVRGLAYYTGIVFEGFDRDGNFRALCGGGRYDNLLTTYGSPTAVPCVGFGFGDCVIVELLNEKKLLPELHHVVDDLVIPFDETMRPHALSILRRLRDAGRSADIVFDKKKVVQAFNYADRIGALRAVLVAPDEWARGEVRVKMLREGAGREEGANERGIVLPVDKIV", "soluble on expression in E. coli": "not soluble"}, {"sequence": "MAHHHHHHMANAELVDAGCFITQMNELLLIDPLYLNCAMTNYCNSYLSGKEELLPRERLNGIYFKNAKPGLWSSFAIRENSQAHLKKTAKQETETDAANRNDKNTYNNIRNEMVLSFVCFNNTNYMHQYLTVEEVDKLHWERMEPSEGHPGVGPTDKCSSTVDGDSKNEKVANFHNDRSELLPLENYFTNVLTIESGQAGLFCIDSIKNSADLLFQKHGMKNISSREQLDILFNQNMNDLYPWFDQICNLTMTSSVAVVDFMGMPIGCVCLSSSDCVVNYLCEVVRDEVTDEVWAIRVNFLAPLK", "soluble on expression in E. coli": "not soluble"}, {"sequence": "MAHHHHHHMANNNMDDINLECENDNDNKISSEKRLVDEIIENNIEEIKKKEKDNKEKDNKEKDNKEKDIMFNIKNGLCDLEKTLDGEGYAYSNLTCRKKGIDFIPKSITRYIHLKYINLSHNNINDLVHLYFLPNIIFLDVSYNMLKEIVELKKEYLKNCIYINLSHNLISHMNNIFLKNLLEFNISYNTINNINIYISNTIRILNLSNNNIKNINFKNKLNNLLDLDISFNPIENLDFHTLMPNLVVLRINDNSTISMDKLNNLNNFKCLQSLFMQNYLYFKDISYKDVKEILLQNSKDIHLLKFNGNRLNKKTDHIEQADVNK", "soluble on expression in E. coli": "soluble"}, {"sequence": "MAHHHHHHMARDYDAGYKLLFAMPEMMRDLLREFIRSDWLRALDYSTLERVSGNYVADNMRQRASDMVWRVDAGDPWGHLYVLLEFQSTIDRYMAPRMAAYTALLHQELVRAGQVLPDRRVPAALSIVLYNGDTPWSACTNIRDVVVSLPNGLAACQLHQQHTLLDINRLSEAQLPDDNLAALLFRIERAADYDTVVSLMIECRMRLRHEPKLKLAFAKTFAALLCGQRGSVLTPDQVFQLMEVDMQVVGANLQRFTHKLREEARQEGEARMLQKLLAERFGSLHASVVQRIEIATPEELERWGIQLLRAEVIEDVFRA", "soluble on expression in E. coli": "soluble"}, {"sequence": "MAHHHHHHMASLTVPAHVPSAAEDCEQLRSAFKGWGTNEKLIISILAHRTAAQRKLIRQTYAETFGEDLLKELDRELTHDFEKLVLVWTLDPSERDAHLAKEATKRWTKSNFVLVELACTRSPKELVLAREAYHARYKKSLEEDVAYHTTGDHRKLLVPLVSSYRYGGEEVDLRLAKAESKILHEKISDKAYSDDEVIRILATRSKAQLNATLNHYKDEHGEDILKQLEDGDEFVALLRATIKGLVYPEHYFVEVLRDAINRRGTEEDHLTRVIATRAEVDLKIIADEYQKRDSIPLGRAIAKDTRGDYESMLLALLGQEED", "soluble on expression in E. coli": "soluble"}, {"sequence": "MAHHHHHHMATIGMFNEEGENVDLYIPRKCHATTTLIEAHDHAAVQISIANVGPNGVINGTTTTLCIAGYLRSQGESDHAINHITIDRGIMRIKTGKPKRASKSKSKKPAAKGAAAGAAAQKGARPPAQKGARPPAQKGARPPAQKGARPPAQKGARPPAQKGAAPARKNRA", "soluble on expression in E. coli": "soluble"}, {"sequence": "MAHHHHHHMCDTANEADGKKLNKKAKSISVVKFKDKEKKKFVSLSSKEETSVQDLPLGCPVCYVPLTVDFNLLNQVEEQDEEEMIVCKEETTYINKSFINRINTNEYRSSTKIEAVFEEVKNVIHTTDDKCLIFSQYCSMLDLIEYHLKKHNIICSKLLGYMPMVSRNNILYNFNEDKHLRVLLISLKAGGEGLNLQVANRIFIVDPWWNPAAELQAIQRAHRIGQTKTVYATRFIIENTVEEKIVQLQNKKQLVFDCTIGDSGNAMQKLTKEDLAFLFHA", "soluble on expression in E. coli": "not soluble"}]}]}
